For two substances, Kd results are on record in publication PMC5324736.

Assay [1] deals with eIF2•GDPNP•Met-tRNAi ternary complex. Kind of assay: native gel or EMSA. (A gel shift assay detects complexes by their altered migration in electrophoresis.)
For assay [2] the target is unchanged. Put plainly: native gel or EMSA. The source holds these as a separate data set.

Where two headings read alike, the source gives them in different places. Where only a bound is given, the exact number is not on record here.

Take “40S ribosomal subunit, sucrose cushion preparation (complex)”: the values for the Kd in assay [1] and in assay [2] were less than 0.001 µM and 0.013 µM, respectively.

Regarding “40S ribosomal subunit, anion exchange column preparation (complex)”, the Kd (usually the concentration at which binding is half-saturated) is less than 0.001 µM in assay [1] and 0.014 µM in assay [2].
